Target: T1, C-terminal domain (CTD) of ARF5-FLucC (Arabidopsis, UniProt P93024 793-902)
T1 construct: In the ARF-ARF tests the same CTD stood both as ARFCTD-FLucC and as ARFCTD-FLucN; one molecule for both; also called ARF5CTD-FLucC; auxin response factor 5; source: Arabidopsis mesophyll protoplasts, transfected, in living cells (SFLC) and in lysate (co-IP); not shown: FLucC (firefly luciferase aa 394-550)
T1 sequence (looked up): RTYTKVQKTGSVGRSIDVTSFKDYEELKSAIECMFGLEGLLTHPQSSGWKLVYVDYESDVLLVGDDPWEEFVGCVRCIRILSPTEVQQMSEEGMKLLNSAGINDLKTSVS
Assay: split reporter (BiFC, NanoBiT); SFLC in living Arabidopsis mesophyll protoplasts: Aux/IAA-FLucN or MYB30-FLucN co-expressed with ARFCTD-FLucC or Aux/IAA-FLucC for 6 hr; 10 µg of each construct, 2×10^4 cells, 96-well plate, D-luciferin; relative activity standardised against ARF5CTD-FLucC + IAA28-FLucN
Settings: partners not purified

B1: IAA28-FLucN (natural protein, Arabidopsis, UniProt Q9XFM0 1-175, looked up)
chain: MEEEKRLELRLAPPCHQFTSNNNINGSKQKSSTKETSFLSNNRVEVAPVVGWPPVRSSRRNLTAQLKEEMKKKESDEEKELYVKINMEGVPIGRKVNLSAYNNYQQLSHAVDQLFSKKDSWDLNRQYTLVYEDTEGDKVLVGDVPWEMFVSTVKRLHVLKTSHAFSLSPRKHGKE
notes: Arabidopsis transcription repressor IAA28; also called Aux/IAA-FLucN; source: Arabidopsis mesophyll protoplasts, transfected, in living cells; not shown: FLucN (firefly luciferase aa 1-398)
B1 was tested, and the “restored luciferase activity, fold over the negative control MYB30-FLucN + ARF5CTD-FLucC” value was ~350 fold.

From PMC3212559, “Large-Scale Protein-Protein Interaction Analysis in Arabidopsis Mesophyll Protoplasts by Split Firefly Luciferase Complementation” (PLoS ONE, 2011)
